{"source": "patent US20210403546A1", "about": "(LUDWIG INSTITUTE FOR CANCER RESEARCH, published 2021)", "binders": {"B1": {"name": "13A1 mouse parental hybrid stabilized Fab (mu13A1) (Fab, V domains shown)", "VH": "EVQLQQSGTVLARPGASVKMSCKTSGYTFTNYWMHWVRQRPGQGLEWIGTIYPGNSDTNYNQKFKDKAKLTAVTSATTAYMELSSLTNEDSAVYFCTREDSRSLYYNGWDYFDYWGQGTTLTVSS", "VL": "not shown", "notes": "also called parental mouse Fab [chimeric, mVHhCH1/mVKhCK]; LCR13A1_VK(murine) + LCR13A1_VH(murine)"}, "B2": {"name": "LCR13A1 Phage (murine 13A1 scFv fused to pIII on filamentous phage) (scFv)", "scFv": "DIVLTQSPASLAVSLGQRATISCRASESVDNYGISFLNWFQQKPGQPPKLLIYAASNQGSGVPARFSGSGSGTDFSLNIHPMEEDDTGMYFCQQSKEVPRTFGGGTKLEIKRTVAARQEGGSGEGGSGESNAAAEVQLQQSGTVLARPGASVKMSCKTSGYTFTNYWMHWVRQRPGQGLEWIGTIYPGNSDTNYNQKFKDKAKLTAVTSATTAYMELSSLTNEDSAVYFCTREDSRSLYYNGWDYFDYWGQGTLVTVSSASTKAS", "notes": "not shown: pIII coat protein of filamentous bacteriophage (fusion partner from phagemid pCHV101)"}, "B3": {"name": "13A1_Glv1 (graft) human IgG1 (antibody, V domains shown)", "VH": "QVQLVQSGAEVKKPGASVKVSCKASGYTFTNYWMHWVRQAPGQGLEWIGTIYPGNSDTNYNQKFKGRVTMTRDTSTSTVYMELSSLRSEDTAVYYCTREDSRSLYYNGWDYFDYWGQGTLVTVSS", "VL": "DIVLTQSPASLAVSPGQRATITCRASESVDNYGISFLNWYQQKPGQPPKLLIYAASNQGSGVPARFSGSGSGTDFTLTINPVEADDTANYYCQQSKEVPRTFGGGTKVEIK", "notes": "also called LCR13A1_GLv1; grafted human IgG1 13A1"}, "B4": {"name": "13A1_GLv1_scFv (CDR-grafted scFv, IGKV7-3*01/IGHV1-46*01) (scFv)", "scFv": "DIVLTQSPASLAVSPGQRATITCRASESVDNYGISFLNWYQQKPGQPPKLLIYAASNQGSGVPARFSGSGSGTDFTLTINPVEADDTANYYCQQSKEVPRTFGGGTKLEIKRTVAARQEGGSGEGGSGESNAAAQVQLVQSGAEVKKPGASVKVSCKASGYTFTNYWMHWVRQAPGQGLEWIGTIYPGNSDTNYNQKFKGRVTMTRDTSTSTVYMELSSLRSEDTAVYYCTREDSRSLYYNGWDYFDYWGQGTLVTVSSASTKAS", "notes": "Orientation VK-linker-VH; expressed in E. coli from pCHV101; also called LCR13A1_Glv1 scFv"}}, "key": {"[1]": {"biological_target": "T1, human recombinant TGF-b1 (human, UniProt P01137 279-390)", "T1 construct": "also called TGF-β1; hTGF-β1", "T1 sequence (P01137 279-390 limits assumed)": "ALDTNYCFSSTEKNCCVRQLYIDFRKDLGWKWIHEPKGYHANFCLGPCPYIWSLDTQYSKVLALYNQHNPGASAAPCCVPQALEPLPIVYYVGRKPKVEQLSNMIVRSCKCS", "assay": "SPR (Biacore T200), 10 nM Fab over amine-coupled TGFb1 (492 RUs); reference of the ranking", "procedure": "FIG. 27 provides Biacore analysis of the new mutant variant antibodies and compares the new mutants versus parent variant 13A1-2F and versus mu13A1. Selected variants have different monovalent (huIgG1 stabilized Fab format). Biacore binding kinetics, range from lower to higher than the parental mouse 13A1 (mu13A1, hybrid with mouse VK/VH and huCK/huCH1). The data presented is ka, kd and apparent KD. TGFb1 (chip): 492 Rus, Fabs: 10 nM, Flow rate: 30 ul/min, Contact time: 510s, Diss. Time: 600s. Quality: Chi(2)<=1% Rmax and U score <=5. Data is presented for mutant variant antibodies 13A1_AF, 13A1_AG, 13A1_AH, 13A1_BF, 13A1_BG, 13A1_BH, 13A1_CF, 13A1_CG, 13A1_CH, 13A1_DF, 13A1_DG, 13A1_DH, 13A1_EF, 13A1_EG and 13A1_EH.\nSPR binding analysis of Fabs: Experiments were performed using the Biacore T200 equipped with the Series S sensor chip CMS (GE Healthcare, cat. #BR-1005-30). The instrument temperature was set at 25° C. for all steps in the analysis while the compartment temperature was set at 10° C. All the assays were performed using the running buffer HBS-EP+ 1×. Recombinant TGF-β1 (Biocat, cat. #TG1-H4212-50 ug-AC) was immobilized with the standard amine-coupling chemistry using a solution of the ligand at 1 ug/mL in acetate, pH 4.5. Recombinant TGF-β1 was injected for several minutes to achieve a target density of 492 RUs. […]"}, "[2]": {"biological_target": "T1, human recombinant TGF-b1", "assay": "phage ELISA on plate-coated TGF-b1, anti-fd detection", "procedure": "(§1) To perform the ELISA a 96-well maxisorp Nunc-immunoplate (Thermo Scientific, cat. #2022-10) was coated with 50 μl/well of human recombinant TGF-b1 (Acrobiosystems, cat. #TG1-H4212), TGF-b2 (R&D Systems, cat. #302-B2-010) and human recombinant TGF-b3 (Shenandoah Biotechnology, cat. #100-109) at 500 ng/ml in PBS at 4° C. overnight. Wells were blocked by the direct addition of 230 μl of block solution (5% skimmed milk/0.05% Tween20 in PBS) without first washing the plate. Blocking was carried out for 45 min with gentle agitation. Concurrently, the bacterial cultures containing the expressed scFv and the rescued phage were blocked by the direct addition of 120 μl of block solution. The blocked maxisorp plate was washed 3× with PBST (PBS+0.1% Tween20) before applying 150 μl of blocked scFv or phage culture to the wells. Incubation was performed for 1 h at room temperature with gentle agitation before washing of the wells with 4×PBST.\nFor the phage ELISA, 100 μl of primary rabbit anti-fd bacteriophage Ab (Sigma, cat. #B7786) diluted 1/1000 in PBS+1% BSA was added to wells followed by a 1 h incubation at room temperature with gentle agitation. The plate was washed 4× with PBST before the addition of 100 μl of secondary mouse anti-rabbit IgG (Y-chain specific) HRP conjugate (Sigma, cat. #A1949) diluted 1/15000 in PBS+1% BSA. […]"}, "[3]": {"biological_target": "T1, human recombinant TGF-b1", "assay": "TGFb specificity ELISA, HEK293-6E supernatant"}, "[4]": {"biological_target": "T1, human recombinant TGF-b1", "assay": "ELISA, soluble scFv on plate-coated TGFb isoforms", "procedure": "as §1\nFor the scFv ELISA, 100 μl of primary mouse 9E10 anti-cmyc Ab diluted 1/1000 in PBS+1% BSA was added to wells, followed by a 1 h incubation at room temperature with gentle agitation. […] The ELISA was developed by the addition of 100 μl/well of TMB substrate (ThermoFischer Scientific, cat. #34021), stabilized with 50 μl/well of stop solution (2N sulfuric acid) and absorbance signals read at 450 nm and 620 nm."}}}
{"binder": "B1", "values": [{"measurement": "binding result", "setting": "[1]", "value": "binds"}]}
{"binder": "B2", "values": [{"measurement": "binding result", "setting": "[2]", "value": "binds"}]}
{"binder": "B3", "values": [{"measurement": "binding result", "setting": "[3]", "value": "binds"}]}
{"binder": "B4", "values": [{"measurement": "binding result", "setting": "[4]", "value": "binds"}]}
